According to US20230295310A1 (ABCELLERA BIOLOGICS, published 2023):
Substitutions are numbered along the chain they refer to.

B1: mAb 170 (antibody, V domains shown)
VH: EVQLVESGGGLVRPGRSLRLSCAASGFTFDDYTMHWVRQAPGKGLEWVSGISWNSGSIGYADSVKGRFTISRDNAKNSLYLQMNSLRAEDTALYYCSKDSSGYGYYLNYSLDVWGKGTTVTVSS
VL: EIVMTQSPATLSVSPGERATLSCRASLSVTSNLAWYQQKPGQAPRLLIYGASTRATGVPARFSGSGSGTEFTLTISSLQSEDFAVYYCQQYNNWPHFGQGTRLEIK
notes: VH/VL only
B2: mAb 174 (antibody, V domains shown)
VH: EVQLVESGGGLVQPGGSLRLSCAASGFTFSSNWMSWVRQAPGKGLEWVANIKQDGSEKYSVDSVKGRFTISRDNAKNSLYLQMNSLRAEDTAVYYCARDRSRNYYWYFDLWGRGTLVTVSS
VL: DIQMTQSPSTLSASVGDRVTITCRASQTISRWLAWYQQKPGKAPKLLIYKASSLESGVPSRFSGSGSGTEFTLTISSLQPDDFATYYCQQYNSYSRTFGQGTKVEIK
notes: VH/VL only
B3: mAb 175 (antibody, V domains shown)
VH: B2 VH with Q3E, S60Y, Q82K, R100C, R102S, Y104W
VL: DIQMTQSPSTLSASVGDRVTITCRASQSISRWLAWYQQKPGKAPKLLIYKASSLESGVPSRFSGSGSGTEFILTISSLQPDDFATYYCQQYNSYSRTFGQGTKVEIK
notes: VH/VL only
B4: mAb 188 (antibody, V domains shown)
VH: QVQLVESGGGVVQPGRSLRLSCAASGFTFSGYGMHWVRQAPGKGLEWVAIIYYNGKKEYYADSVKGRFTISRDNSKNTLYLQMNSLRAEDTAVYYCTRGEGYNWFDPWGQGTLVTVSS
VL: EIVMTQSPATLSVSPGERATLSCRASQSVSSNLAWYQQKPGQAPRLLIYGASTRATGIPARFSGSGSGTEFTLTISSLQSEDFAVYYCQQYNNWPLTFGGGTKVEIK
notes: VH/VL only
B5: mAb 189 (antibody, V domains shown)
VH: B4 VH with N54D, K57N, E58K, N77S, R87G, E89D, E100K
VL: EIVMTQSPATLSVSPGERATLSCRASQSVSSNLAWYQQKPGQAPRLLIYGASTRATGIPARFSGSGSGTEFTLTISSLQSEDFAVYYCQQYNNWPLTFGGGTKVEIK
notes: VH/VL only
B6: mAb 191 (antibody, V domains shown)
VH: B4 VH
VL: EIVMTQSPATLSVSPGERATLSCRASQSVSSNLAWYQQKPGQAPRLLIYGASTRATGIPARFSGSGSGTDFTLTISSLQSEHFAVYYCQQYTNWPLTFGGGTKVEIK
notes: VH/VL only
B7: mAb 192 (antibody, V domains shown)
VH: B4 VH with T112I
VL: B6 VL with D70E, H82D, Q89K, T92K
notes: VH/VL only
B8: mAb 197 (antibody, V domains shown)
VH: B4 VH with R16G, Y52W, K56R, E58T, D62E, Y80S, A88V, R98T, E100Q
VL: B6 VL with D70E, H82D, Y91F, T92N, N93A, V104M
notes: VH/VL only
B9: mAb 198 (antibody, V domains shown)
VH: B4 VH with R16G, Y52W, K56R, E58T, D62E, Y80S, A88I, R98T, E100Q
VL: B6 VL with D70E, H82D, Y91F, T92N, N93A, V104M
notes: VH/VL only
B10: mAb 199 (antibody, V domains shown)
VH: B4 VH with S71F, Q82H
VL: B6 VL with S31R, D70E, H82D, T92N
notes: VH/VL only
B11: mAb 201 (antibody, V domains shown)
VH: B4 VH
VL: B6 VL with N32S, D70E, H82D, T92N
notes: VH/VL only
B12: mAb 203 (antibody, V domains shown)
VH: B4 VH with R16G, S30R, K56R, E58T, D62E, Y80S, A88V, R98A, E100Q
VL: B6 VL with D70E, H82D, Y91F, T92N, N93A, V104M
notes: VH/VL only
B13: mAb 204 (antibody, V domains shown)
VH: B4 VH with P14S, I51V, N54D, K57N, E58K, T97V
VL: B6 VL with A43V, D70Q, H82D, T92N
notes: VH/VL only
B14: mAb 205 (antibody, V domains shown)
VH: B4 VH with R16K
VL: B6 VL with D70E, H82D, Q89K, T92N
notes: VH/VL only
B15: mAb 209 (antibody, V domains shown)
VH: B4 VH with I70V, T78M
VL: B6 VL with S28T, D70E, H82D, Q89K, T92N, W94R
notes: VH/VL only
B16: mAb 216 (antibody, V domains shown)
VH: B4 VH
VL: B6 VL with D70E, H82D, Q89K, T92K
notes: VH/VL only
B17: mAb 217 (antibody, V domains shown)
VH: B4 VH with S71F, L79V, N84K
VL: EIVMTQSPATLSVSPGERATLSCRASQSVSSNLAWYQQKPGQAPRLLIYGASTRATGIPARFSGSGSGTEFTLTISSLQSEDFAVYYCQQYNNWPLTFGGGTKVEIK
notes: VH/VL only
B18: mAb 221 (antibody, V domains shown)
VH: B4 VH with R16G, Y52W, K56R, E58T, D62E, Y80S, A88V, R98A, E100Q
VL: B6 VL with D70E, H82D, Y91F, T92N, N93A, V104M
notes: VH/VL only
B19: mAb 222 (antibody, V domains shown)
VH: B4 VH with L79V
VL: B6 VL with E1K, D70E, H82D, Q89K, T92N
notes: VH/VL only
B20: mAb 224 (antibody, V domains shown)
VH: B4 VH with T78M, S85G, V93I
VL: B6 VL with A19T, S31N, D70E, H82D, T92N
notes: VH/VL only
B21: mAb 206 (antibody, V domains shown)
VH: QVQLVESGGGVVQPGRSLRLSCAASGFTFSGYGMHWVRQAPGKGLEWVAIIYYNGNNRKYADSVKGRFTISRDNSKNTVSLQMNSLRVEDTAIYYCTRGDGYNWFVTWGQGTLVTVSS
VL: B6 VL with Q37H, A60V, D70E, H82D, T92N
notes: VH/VL only
B22: mAb 193 (antibody, V domains shown)
VH: B21 VH
VL: B6 VL with Q37H, A60V, D70E, E81D, H82D, T92N
notes: VH/VL only
B23: mAb 210 (antibody, V domains shown)
VH: B21 VH with V48L, I93M
VL: B6 VL with T20A, S30T, Q37H, A60V, D70E, H82D, T92N, I106N
notes: VH/VL only
B24: mAb 215 (antibody, V domains shown)
VH: B21 VH with S25T
VL: B6 VL with Q37R, A60V, D70E, H82D, T92N
notes: VH/VL only; the VL is printed as a fragment of 18 residues only
B25: mAb 218 (antibody, V domains shown)
VH: B21 VH with K65R
VL: B6 VL with Q37Y, A60V, D70E, H82D, T92N
notes: VH/VL only
B26: mAb 226 (antibody, V domains shown)
VH: B21 VH
VL: B6 VL with V29I, Q37H, A60V, D70E, H82D, V85L, T92N
notes: VH/VL only

Target: T1, human CD3 expressed on cells (Jurkat cells; human primary T cells) (human, UniProt P07766 23-207; P04234 22-171; P09693 23-182)
T1 construct: whole, on cells
Assay: flow cytometry, 25 nM, Jurkat cells
Experimental: (§1) Purified antibodies were confirmed to bind CD3 expressed on cells using the CytoFLEX S or LX flow cytometers (Beckman Coulter). Antibodies were diluted to 25 nM in FACS buffer (PBS+2% FBS) and were incubated with CD3-expressing cells for 30 minutes at 4° C. […] The median fluorescence intensity of the binding signal for each antibody was normalized to the isotype control to obtain a fold over isotype value. An antibody with a fold over isotype (FOI) of ≥10 was considered to be positive for binding.

T1 sequence (P07766 23-207, chain 1 of 3): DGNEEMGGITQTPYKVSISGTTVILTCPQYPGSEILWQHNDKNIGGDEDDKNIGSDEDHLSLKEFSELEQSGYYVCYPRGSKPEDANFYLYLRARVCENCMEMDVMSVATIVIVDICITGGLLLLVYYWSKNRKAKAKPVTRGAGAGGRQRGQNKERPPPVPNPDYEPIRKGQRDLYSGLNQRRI
T1 sequence (P04234 22-171, chain 2 of 3): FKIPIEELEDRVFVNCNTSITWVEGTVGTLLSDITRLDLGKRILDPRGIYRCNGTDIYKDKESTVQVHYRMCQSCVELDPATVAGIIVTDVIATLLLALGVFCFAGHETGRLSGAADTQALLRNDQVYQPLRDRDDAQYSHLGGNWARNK
T1 sequence (P09693 23-182, chain 3 of 3): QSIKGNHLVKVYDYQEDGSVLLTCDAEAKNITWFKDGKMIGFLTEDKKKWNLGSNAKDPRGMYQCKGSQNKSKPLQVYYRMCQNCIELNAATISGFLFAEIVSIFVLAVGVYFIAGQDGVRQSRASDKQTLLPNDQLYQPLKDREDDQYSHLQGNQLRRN

Row | Binder | Binding (FOI)
1 | B1 | 117
2 | B2 | 130
3 | B3 | 96.6
4 | B4 | 171
5 | B5 | 165
6 | B6 | 170
7 | B7 | 176
8 | B8 | 183
9 | B9 | 182
10 | B10 | 172
11 | B11 | 166
12 | B12 | 201
13 | B13 | 162
14 | B14 | 180
15 | B15 | 186
16 | B16 | 182
17 | B17 | 173
18 | B18 | 181
19 | B19 | 180
20 | B20 | 181
21 | B21 | 186
22 | B22 | 163
23 | B23 | 168
24 | B24 | 167
25 | B25 | 179
26 | B26 | 176

Target: T2, cynomolgus monkey CD3 expressed on cyno primary T cells (cynomolgus monkey, UniProt Q95LI5 22-198; Q95LI8 22-171; Q95LI7 23-181)
T2 construct: whole, on cells; CD3 complex on purified cynomolgus monkey CD3 pan T cells; also called cyno CD3
Assay: flow cytometry, cyno primary T cells
How it was run: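 Binding readout: MFI divided by isotype-control MFI (fold over isotype), positive at ≥10. Cells were stained with 25 nM antibody, 30 min, 4° C, in PBS/2% FBS before flow cytometry.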

T2 sequence (Q95LI5 22-198, chain 1 of 3): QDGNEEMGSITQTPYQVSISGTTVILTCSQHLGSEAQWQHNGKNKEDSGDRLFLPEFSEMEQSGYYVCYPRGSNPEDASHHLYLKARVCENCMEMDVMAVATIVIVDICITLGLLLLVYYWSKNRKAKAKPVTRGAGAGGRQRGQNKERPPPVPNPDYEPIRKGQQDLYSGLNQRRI
T2 sequence (Q95LI8 22-171, chain 2 of 3): as the sequence (P04234 22-171, chain 2 of 3) above, with I5V, N15K, I20V, S32T, D33N, I34N, T64A, S74N, V83L, H141R counted along it
T2 sequence (Q95LI7 23-181, chain 3 of 3): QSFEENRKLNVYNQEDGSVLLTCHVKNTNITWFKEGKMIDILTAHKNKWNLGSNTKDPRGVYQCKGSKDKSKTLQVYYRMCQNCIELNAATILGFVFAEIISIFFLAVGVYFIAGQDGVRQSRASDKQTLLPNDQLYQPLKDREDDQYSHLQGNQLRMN

Row | Binder | binding result
27 | B1 | no binding (tested: FOI <10 (FOI >=10 = positive); 25 nM)
28 | B2 | no binding (tested: FOI <10 (FOI >=10 = positive); 25 nM)
29 | B3 | no binding (tested: FOI <10 (FOI >=10 = positive); 25 nM)
30 | B4 | no binding (tested: FOI <10 (FOI >=10 = positive); 25 nM)
31 | B5 | no binding (tested: FOI <10 (FOI >=10 = positive); 25 nM)
32 | B6 | no binding (tested: FOI <10 (FOI >=10 = positive); 25 nM)
33 | B7 | no binding (tested: FOI <10 (FOI >=10 = positive); 25 nM)
34 | B8 | no binding (tested: FOI <10 (FOI >=10 = positive); 25 nM)
35 | B9 | no binding (tested: FOI <10 (FOI >=10 = positive); 25 nM)
36 | B10 | no binding (tested: FOI <10 (FOI >=10 = positive); 25 nM)
37 | B11 | no binding (tested: FOI <10 (FOI >=10 = positive); 25 nM)
38 | B12 | no binding (tested: FOI <10 (FOI >=10 = positive); 25 nM)
39 | B13 | no binding (tested: FOI <10 (FOI >=10 = positive); 25 nM)
40 | B14 | no binding (tested: FOI <10 (FOI >=10 = positive); 25 nM)
41 | B15 | no binding (tested: FOI <10 (FOI >=10 = positive); 25 nM)
42 | B16 | no binding (tested: FOI <10 (FOI >=10 = positive); 25 nM)
43 | B17 | no binding (tested: FOI <10 (FOI >=10 = positive); 25 nM)
44 | B18 | no binding (tested: FOI <10 (FOI >=10 = positive); 25 nM)
45 | B19 | no binding (tested: FOI <10 (FOI >=10 = positive); 25 nM)
46 | B20 | no binding (tested: FOI <10 (FOI >=10 = positive); 25 nM)
47 | B21 | no binding (tested: FOI <10 (FOI >=10 = positive); 25 nM)
48 | B22 | no binding (tested: FOI <10 (FOI >=10 = positive); 25 nM)
49 | B23 | no binding (tested: FOI <10 (FOI >=10 = positive); 25 nM)
50 | B24 | no binding (tested: FOI <10 (FOI >=10 = positive); 25 nM)
51 | B25 | no binding (tested: FOI <10 (FOI >=10 = positive); 25 nM)
52 | B26 | no binding (tested: FOI <10 (FOI >=10 = positive); 25 nM)

Target: T1, human CD3 expressed on cells (Jurkat …)
Assay: flow cytometry, 25 nM, human primary T cells
Experimental: as §1

Row | Binder | Binding (FOI)
53 | B1 | 120
54 | B2 | 231
55 | B3 | 118
56 | B4 | 216
57 | B5 | 184
58 | B6 | 212
59 | B7 | 223
60 | B8 | 260
61 | B9 | 231
62 | B10 | 225
63 | B11 | 210
64 | B12 | 285
65 | B13 | 181
66 | B14 | 216
67 | B15 | 228
68 | B16 | 218
69 | B17 | 214
70 | B18 | 239
71 | B19 | 216
72 | B20 | 212
73 | B21 | 198
74 | B22 | 206
75 | B23 | 192
76 | B24 | 202
77 | B25 | 192
78 | B26 | 199
